The target of the experiment is XptA2wi (Xenorhabdus nematophilus str Xwi).

For the substance XptB1xb + XptC1xb, the dead corn earworm larvae of 8 (pDAB6026 lysate + purified XptA2wi) (dead insects (of 8)) was found to be 8.
